Data reported in publication PMC5427921, “PRL3 phosphatase active site is required for binding the putative magnesium transporter CNNM3” (Scientific Reports, 2017).

Biological target: T1, Human phosphatase PRL3, amino acids 1–169 (wild type) (human, UniProt O75365 1-169)
T1 construct: N-terminal extension Gly-Ser-His left after thrombin cleavage of the His tag; phosphatase of regenerating liver 3 (PRL3), human, amino acids 1-169; also called PRL3-wt; wild-type PRL3; not shown: His6, N-terminal, cleaved
Experiment: ITC; syringe 160 μM PRL2 or PRL3, cell 16 μM CNNM3 CBS-pair domain as a GST fusion; 22 °C; 30 injections of 10 μl; fitted to a single set of identical sites
Conditions: both partners purified

T1 sequence (O75365 other isoform, or with tags, fused parts or gaps): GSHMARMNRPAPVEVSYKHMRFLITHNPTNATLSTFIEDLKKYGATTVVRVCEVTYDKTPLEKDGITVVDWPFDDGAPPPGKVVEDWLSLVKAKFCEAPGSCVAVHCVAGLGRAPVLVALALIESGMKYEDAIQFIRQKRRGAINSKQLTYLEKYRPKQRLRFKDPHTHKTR

Kd: 11 nM
B1: CNNM3 CBS-pair domain as a GST fusion (domain or fragment, human)
chain: LRCRTVEDVLTPLEDCFMLDASTVLDFGVLASIMQSGHTRIPVYEEERSNIVDMLYLKDLAFVDPEDCTPLSTITRFYNHPLHFVFNDTKLDAVLEEFKRGKSHLAIVQKVNNEGEGDPFYEVLGLVTLEDVIEEIIRSEILDE
notes: CBS-pair domain of human CNNM3; also called CBS-pair (Bateman) domain of CNNM3
